{"source": "paper PMC6707248", "about": "“hCINAP regulates the DNA-damage response and mediates the resistance of acute myelocytic leukemia cells to therapy” (Nature Communications, 2019)", "molecular_target": "T1, GST-NPM1 (unSUMOylated) (UniProt P06748 1-294)", "T1 construct": "Nucleophosmin (NPM1); also called GST-tagged NPM1; unSUMOylated GST-NPM1; source: E. coli, purified", "T1 sequence (P06748 whole entry)": "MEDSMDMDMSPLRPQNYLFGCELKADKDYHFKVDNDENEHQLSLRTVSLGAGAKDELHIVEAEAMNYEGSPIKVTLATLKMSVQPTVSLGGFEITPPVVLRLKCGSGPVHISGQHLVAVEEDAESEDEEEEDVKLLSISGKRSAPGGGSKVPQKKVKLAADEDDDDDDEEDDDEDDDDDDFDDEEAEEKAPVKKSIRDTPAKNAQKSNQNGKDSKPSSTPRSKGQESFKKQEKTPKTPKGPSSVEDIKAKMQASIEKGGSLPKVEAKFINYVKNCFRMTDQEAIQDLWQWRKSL", "test": "pull-down; in vitro GST pull-down; His-hCINAP and GST-NPM1 purified from E. coli; GST protein as negative control", "settings": "both partners purified"}
{"binder": "His-hCINAP (natural protein, human, UniProt Q9Y3D8 1-172, looked up, source: E. coli, purified) MLLPNILLTGTPGVGKTTLGKELASKSGLKYINVGDLAREEQLYDGYDEEYDCPILDEDRVVDELDNQMREGGVIVDYHGCDFFPERWFHIVFVLRTDTNVLYERLETRGYNEKKLTDNIQCEIFQVLYEEATASYKEEIVHQLPSNKPEELENNVDQILKWIEQWIKDHNS", "values": [{"measurement": "binding result", "result": "binds"}]}
